Key:
[1] = target: SARS-CoV-2 S N-terminal domain (NTD), wild type, with the native signal peptide (SARS-CoV-2, Wuhan-Hu-1 (wild type), UniProt P0DTC2); assay: ELISA; details: both partners purified
[2] = target: SARS-CoV-2 WT NTD with the native signal peptide (SARS-CoV-2, Wuhan-Hu-1 (wild type), UniProt P0DTC2); assay: ELISA; details: both partners purified

Row | Binder | binding result [1] | binding result [2]
1 | S2X333 mAb (NTD-specific, neutralizing, antigenic site i) (antibody, V domains shown) VH: VQLVESGGGVVQPGRSLRLSCAASGFTFSNYGMHWVRQAPGKGLEWVAVIWYDGSNKFYADSVKGRFTISRDNSKNSLYLQMNSLRAEDTAVYFCARAFPDSSSWSGFTIDYWGQGTLVTV VL: YELTQPPSVSTARITCGGNNIERKSVHWCQQKPGQAPALVVYDDSDRPSGIPERFSGSNSGNTATLTISRVEAGDEADYYCQVWDSGSDQVIFGGGTKLT | binds | –
2 | S2L20 mAb (antibody, V domains shown) VH: EVQLVESGGGVVQPGGSLRLSCAASGFTFNSYGMHWVRQAPGKGLEWVAFIRYDGGNKYYADSVKGRFTISRDNSKNTLYLQMKSLRAEDTAVYYCANLKDSRYSGSYYDYWGQGTLVTVS VL: not shown | – | binds

Reference: article PMC9835956 (Science (New York, N.y.), 2021)
